Target: GST-TOC34 fusion protein (Arabidopsis thaliana) (UniProt Q38906)
UniProt Q38906, sequence (Q38906 whole entry, the tested form may be a part): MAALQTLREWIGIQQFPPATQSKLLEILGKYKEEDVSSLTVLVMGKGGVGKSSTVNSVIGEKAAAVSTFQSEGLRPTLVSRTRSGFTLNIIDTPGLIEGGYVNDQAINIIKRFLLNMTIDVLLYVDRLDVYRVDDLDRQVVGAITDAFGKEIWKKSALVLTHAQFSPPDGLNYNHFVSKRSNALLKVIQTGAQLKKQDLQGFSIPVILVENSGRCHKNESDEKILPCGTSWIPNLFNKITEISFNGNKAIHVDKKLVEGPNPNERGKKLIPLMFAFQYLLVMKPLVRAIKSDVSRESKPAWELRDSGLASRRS

- GTPase activity of TOC34 (free phosphate from GTP, 27°C, 30 min) with CBL10 and 5 mM CaCl2: 0.5 fold
Substance: CBL10-cMyc (thrombin-cleaved from GST-CBL10-cMyc) (from UniProt Q7FRS8 1-256)

From article PMC5156837
